# Tests used:
# [1] = substrate: CC(=O)C(=O)O; assay: purified protein; format: biochemical, Sulfurisphaera tokodaii; conditions: 0.25 mM CoA, 2 mM methylviologen, 50 mM Tris-HCl pH 8.5, 80 °C
# [2] = substrate: O=C(O)CCC(=O)C(=O)O; assay: purified protein; format: biochemical, Sulfurisphaera tokodaii; conditions: 0.25 mM CoA, 2 mM methylviologen, 50 mM Tris-HCl pH 8.5, 80 °C
Protein,Km [1] [µM],Vmax [1] [µmol/min/mg],Km [2] [µM],Vmax [2] [µmol/min/mg]
"StOFOR1 (Sulfurisphaera tokodaii str. 7) (protein, recombinant in E. coli C43(DE3), pET-17b-based pOFORAB, untagged; 70 kDa alpha and 34 kDa beta subunits; (ab)2 heterotetramer with TPP, Mg2+, [4Fe-4S]) chain 1: MRLSWVIGGAQGTGIDTAANIFGNAVASAGYYIYGNREYYSNIKGRHSYFSLTISDKRVRSNTQKIDILVSFDAETVFQHFYDVKDILIYNKAVETTKIDAVQSMEPELAERIKDFLTKQGYETTVKGALEYASKNNVTLIPVNYDEIAKKVADEMKVPLSVTERVKNIVGITISYKLLGLDVNYLIEAINSTFKQDLYRKMNELAVKDSYDIVESRYNLKPSSKERRRFWLDGNTAVAIGKIYGGVRFQSYYPITPASDESVYIEAHQDVLMEDPITGDKKKGTIVVVQAEDELAAINMAIGAALTGVRAATATSGPGFSLMVEGLGWAGMNEVPVVITYYIRGGPSTGLPTRTAQSDLIFPIFAGHGEFPKIVLASGDHAEAFKDAIWALNLAEKYQTPVIHLVEKTLANSYSTIPYEELELDKLKAERGKIVESGDISYKRFKFTEDGISPRAFLGKATMYYTGDEHNEEGHISEDVVNRTMMYEKRMKKLEVADKEIPEESRVKIYGDLNSRNLIITWGSPTGVLRDILEESNFDFTLLQIRMFSPFPKNLVSKLMEGRDKIITVEGNYLAQTSLLVKMYTGKDVTNSILKWNGRPFLRDELEEALIKVIKDGEKRVVLNGGI chain 2: MAAFKPQWNDWCPGCGNFGILNAEQQAIVELGVDTKNVVVVSGIGCSGKIPHFFRTPISGVHTLHGRAIAFATGIKLSNPDLVVIVNGGDGDLLGIGAGHFVAAGRRNVDMVVILHDNGVYGLTKGQASPTLKRGEKPKSLPRPNINDAVNPIALAISSGYTFVARGYAYDVKHLKELIKSAIKHKGLALIDVLQPCPTYNDINTKEWYDKRIYKLDTLPDWDPVVKKPEEVNEKIKRAIDKSLEWGDRIPIGIFYQNELVPSYEERIKANSPAYLDYTPAKQLIEKEGKLTTIIDPLLKEREVD",320 ± 80,7.5,2100 ± 300,2.7
"StOFOR1 (Sulfurisphaera tokodaii str. 7; Q96Y66:S41A) (protein, recombinant in E. coli C43(DE3), pET-17b-based pOFORAB, untagged; 70 kDa alpha and 34 kDa beta subunits; (ab)2 heterotetramer with TPP, Mg2+, [4Fe-4S]) chain 1: MRLSWVIGGAQGTGIDTAANIFGNAVASAGYYIYGNREYYANIKGRHSYFSLTISDKRVRSNTQKIDILVSFDAETVFQHFYDVKDILIYNKAVETTKIDAVQSMEPELAERIKDFLTKQGYETTVKGALEYASKNNVTLIPVNYDEIAKKVADEMKVPLSVTERVKNIVGITISYKLLGLDVNYLIEAINSTFKQDLYRKMNELAVKDSYDIVESRYNLKPSSKERRRFWLDGNTAVAIGKIYGGVRFQSYYPITPASDESVYIEAHQDVLMEDPITGDKKKGTIVVVQAEDELAAINMAIGAALTGVRAATATSGPGFSLMVEGLGWAGMNEVPVVITYYIRGGPSTGLPTRTAQSDLIFPIFAGHGEFPKIVLASGDHAEAFKDAIWALNLAEKYQTPVIHLVEKTLANSYSTIPYEELELDKLKAERGKIVESGDISYKRFKFTEDGISPRAFLGKATMYYTGDEHNEEGHISEDVVNRTMMYEKRMKKLEVADKEIPEESRVKIYGDLNSRNLIITWGSPTGVLRDILEESNFDFTLLQIRMFSPFPKNLVSKLMEGRDKIITVEGNYLAQTSLLVKMYTGKDVTNSILKWNGRPFLRDELEEALIKVIKDGEKRVVLNGGI chain 2: MAAFKPQWNDWCPGCGNFGILNAEQQAIVELGVDTKNVVVVSGIGCSGKIPHFFRTPISGVHTLHGRAIAFATGIKLSNPDLVVIVNGGDGDLLGIGAGHFVAAGRRNVDMVVILHDNGVYGLTKGQASPTLKRGEKPKSLPRPNINDAVNPIALAISSGYTFVARGYAYDVKHLKELIKSAIKHKGLALIDVLQPCPTYNDINTKEWYDKRIYKLDTLPDWDPVVKKPEEVNEKIKRAIDKSLEWGDRIPIGIFYQNELVPSYEERIKANSPAYLDYTPAKQLIEKEGKLTTIIDPLLKEREVD",490 ± 90,2.2,3200 ± 400,1.1
"StOFOR1 (Sulfurisphaera tokodaii str. 7; Q96Y66:T349L) (protein, recombinant in E. coli C43(DE3), pET-17b-based pOFORAB, untagged; 70 kDa alpha and 34 kDa beta subunits; (ab)2 heterotetramer with TPP, Mg2+, [4Fe-4S]) chain 1: MRLSWVIGGAQGTGIDTAANIFGNAVASAGYYIYGNREYYSNIKGRHSYFSLTISDKRVRSNTQKIDILVSFDAETVFQHFYDVKDILIYNKAVETTKIDAVQSMEPELAERIKDFLTKQGYETTVKGALEYASKNNVTLIPVNYDEIAKKVADEMKVPLSVTERVKNIVGITISYKLLGLDVNYLIEAINSTFKQDLYRKMNELAVKDSYDIVESRYNLKPSSKERRRFWLDGNTAVAIGKIYGGVRFQSYYPITPASDESVYIEAHQDVLMEDPITGDKKKGTIVVVQAEDELAAINMAIGAALTGVRAATATSGPGFSLMVEGLGWAGMNEVPVVITYYIRGGPSLGLPTRTAQSDLIFPIFAGHGEFPKIVLASGDHAEAFKDAIWALNLAEKYQTPVIHLVEKTLANSYSTIPYEELELDKLKAERGKIVESGDISYKRFKFTEDGISPRAFLGKATMYYTGDEHNEEGHISEDVVNRTMMYEKRMKKLEVADKEIPEESRVKIYGDLNSRNLIITWGSPTGVLRDILEESNFDFTLLQIRMFSPFPKNLVSKLMEGRDKIITVEGNYLAQTSLLVKMYTGKDVTNSILKWNGRPFLRDELEEALIKVIKDGEKRVVLNGGI chain 2: MAAFKPQWNDWCPGCGNFGILNAEQQAIVELGVDTKNVVVVSGIGCSGKIPHFFRTPISGVHTLHGRAIAFATGIKLSNPDLVVIVNGGDGDLLGIGAGHFVAAGRRNVDMVVILHDNGVYGLTKGQASPTLKRGEKPKSLPRPNINDAVNPIALAISSGYTFVARGYAYDVKHLKELIKSAIKHKGLALIDVLQPCPTYNDINTKEWYDKRIYKLDTLPDWDPVVKKPEEVNEKIKRAIDKSLEWGDRIPIGIFYQNELVPSYEERIKANSPAYLDYTPAKQLIEKEGKLTTIIDPLLKEREVD",510 ± 110,3.2,2300 ± 300,2
"StOFOR1 (Sulfurisphaera tokodaii str. 7; Q96Y68:K49I) (protein, recombinant in E. coli C43(DE3), pET-17b-based pOFORAB, untagged; 70 kDa alpha and 34 kDa beta subunits; (ab)2 heterotetramer with TPP, Mg2+, [4Fe-4S]) chain 1: MRLSWVIGGAQGTGIDTAANIFGNAVASAGYYIYGNREYYSNIKGRHSYFSLTISDKRVRSNTQKIDILVSFDAETVFQHFYDVKDILIYNKAVETTKIDAVQSMEPELAERIKDFLTKQGYETTVKGALEYASKNNVTLIPVNYDEIAKKVADEMKVPLSVTERVKNIVGITISYKLLGLDVNYLIEAINSTFKQDLYRKMNELAVKDSYDIVESRYNLKPSSKERRRFWLDGNTAVAIGKIYGGVRFQSYYPITPASDESVYIEAHQDVLMEDPITGDKKKGTIVVVQAEDELAAINMAIGAALTGVRAATATSGPGFSLMVEGLGWAGMNEVPVVITYYIRGGPSTGLPTRTAQSDLIFPIFAGHGEFPKIVLASGDHAEAFKDAIWALNLAEKYQTPVIHLVEKTLANSYSTIPYEELELDKLKAERGKIVESGDISYKRFKFTEDGISPRAFLGKATMYYTGDEHNEEGHISEDVVNRTMMYEKRMKKLEVADKEIPEESRVKIYGDLNSRNLIITWGSPTGVLRDILEESNFDFTLLQIRMFSPFPKNLVSKLMEGRDKIITVEGNYLAQTSLLVKMYTGKDVTNSILKWNGRPFLRDELEEALIKVIKDGEKRVVLNGGI chain 2: MAAFKPQWNDWCPGCGNFGILNAEQQAIVELGVDTKNVVVVSGIGCSGIIPHFFRTPISGVHTLHGRAIAFATGIKLSNPDLVVIVNGGDGDLLGIGAGHFVAAGRRNVDMVVILHDNGVYGLTKGQASPTLKRGEKPKSLPRPNINDAVNPIALAISSGYTFVARGYAYDVKHLKELIKSAIKHKGLALIDVLQPCPTYNDINTKEWYDKRIYKLDTLPDWDPVVKKPEEVNEKIKRAIDKSLEWGDRIPIGIFYQNELVPSYEERIKANSPAYLDYTPAKQLIEKEGKLTTIIDPLLKEREVD",910 ± 120,2.1,,
"StOFOR2 (Sulfurisphaera tokodaii str. 7) (protein, recombinant in E. coli C43(DE3), genes from S. tokodaii genomic DNA in pOFORAB (pET-17b based), untagged; (ab)2 heterotetramer with TPP, Mg2+, [4Fe-4S]) chain 1: MTRIVWMIGGAQGLGVDTSANIFGNAVAKAGYYLFGNREYYSNIKGRHSYFEVVISEKPIRSLSSYVNILASFDAETVFQHFTETKEYLIYNVEYENTTVDLVKSMEPEMAEQVKEALSKERLGFTIKDVLEYLKRRGVKVIGFNYTELIKKIADTFKVPMSVVERAKNMIAVGASYGLLGLKFDYLKDAISSTFKNELFIKFNTMAAELGYNSVPNVYKLQEYKIEKQRIQVDGNTISAMGKLAGGLRFQSYYPITPASDESVYIEANQNLDMIVEGNELRKGGVVVVQAEDELAAINMAVGAALTGVRSATATSGPGFSLMSEGISWAGMNEVPVVITYYMRGAPATGLPTRSGQADLKFALNVGHGEFPRIVIASGDHVEIFWDAIWALNLAEKYQTPVIHIIEKTLANAYSVFEEELITNRPYVIERGKIVKPTSDYFNRFEVTEDGISPRVFLGQASIFYTGDEHNEEGHITENSINRMKMYEKRNKKLETADKEIPEEQRVNIVGDADIVLLTWGSPKGAILDAMEELSKDGIKTMMVQVKMFNPYPKNLMKKILSGKSKIIAVENNYNAQGAEVLAEKTGIFATNYILKWTGRPITREEVIEGIKKILERDEKRVVLYGGA chain 2: MVERKPVFVDWCPGCGDFGILRAEEMAIRELGINPKSVVIVSGIGCSGKIPHFMNLPISGVHTLHGRSIAFATGIKLSNPSLEVIVNVGDGDGLGIGMGHFVHLGRRNIDIAVLVHNNGVYGLTKGQASPTLHRGEKTKSLPKPNIMDAVNPLAVALAAGYTFVARGYAYDVMHLKELIKKAILHKGSALVDILQPCPTYNDINTKEWYDKRVYKLDNVPGWDPVVRKEEEAQKKFEQAIMKSYEWGEKIPIGIFYQNELVPTFEDRLTSNIPNYREYYPAKQQIEINGISTTKIDELIKAKRI",1600 ± 300,7,15000 ± 2000,1.4
